{
  "source": "patent US20100003258A1",
  "assay_in_all_cases": "cell-based or functional assay",
  "key": {"[1]": {"biological_target": "human FGFR3 IIIc G380R on FDCP-1 cells (FGFR3 IIIc G380R #1) (human), P22607", "sequence (P22607 23-806 G380R)": "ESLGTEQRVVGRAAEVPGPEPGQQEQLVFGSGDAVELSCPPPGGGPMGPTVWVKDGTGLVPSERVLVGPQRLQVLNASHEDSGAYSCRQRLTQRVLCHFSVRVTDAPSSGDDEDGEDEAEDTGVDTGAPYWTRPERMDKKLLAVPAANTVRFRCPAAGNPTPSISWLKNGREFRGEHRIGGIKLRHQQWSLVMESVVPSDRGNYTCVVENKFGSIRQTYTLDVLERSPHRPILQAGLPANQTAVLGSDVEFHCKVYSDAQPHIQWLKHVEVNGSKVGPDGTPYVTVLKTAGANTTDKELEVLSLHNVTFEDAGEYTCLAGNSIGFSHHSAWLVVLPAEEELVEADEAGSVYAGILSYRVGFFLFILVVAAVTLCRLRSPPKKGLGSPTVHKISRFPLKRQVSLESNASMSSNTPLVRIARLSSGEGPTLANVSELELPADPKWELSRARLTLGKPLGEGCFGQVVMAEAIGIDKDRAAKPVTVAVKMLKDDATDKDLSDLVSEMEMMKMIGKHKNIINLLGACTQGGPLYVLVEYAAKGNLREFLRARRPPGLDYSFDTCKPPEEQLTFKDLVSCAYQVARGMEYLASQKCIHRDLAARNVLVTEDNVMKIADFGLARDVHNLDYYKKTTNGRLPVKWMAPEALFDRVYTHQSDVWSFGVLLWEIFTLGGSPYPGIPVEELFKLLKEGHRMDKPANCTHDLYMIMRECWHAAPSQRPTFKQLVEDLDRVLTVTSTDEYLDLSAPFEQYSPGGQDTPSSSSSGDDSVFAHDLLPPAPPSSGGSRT"}, "[2]": {"biological_target": "human FGFR3 IIIc on FDCP-1 cells (FDCP-FGFR3 IIIc #109) (human), P22607", "sequence (P22607 23-806)": "as the sequence (P22607 23-806 G380R) above, with R358G counted along it"}, "[3]": {"biological_target": "human FGFR3 IIIb on FDCP-1 cells (FDCP-FGFR3 IIIb #122) (human), P22607", "sequence (P22607 23-806)": "as the sequence (P22607 23-806 G380R) above, with R358G counted along it"}, "[4]": {"biological_target": "FDCP-FGFR3 IIIb and FDCP-FGFR3 IIIc cell lines"}},
  "data": [
    {"binder": "anti-FGFR3 monoclonal antibody 15D8 (antibody, mouse IgG1, kappa) heavy: EIQLQQSGPELVKPGASVKVSCKASGYAFTSYNMYWVKQSHGKSLEWIGYIDPYNGGTSYNQKFKGKATLTVDKSSSTAYMHLNSLTSEDSAVYYCAREGGNYEAWFAYWGQGTLVTVSAAKTTPPSVYPLAPGSAAQTNSMVTLGCLVKGYFPEPVTVTWNSGSLSSGVHTFPAVLQSDLYTLSSSVTVPSSTWPSETVTCNVAHPASSTKVDKKIVPRDCGCKPCICTVPEVSSVFIFPPKPKDVLTITLTPKVTCVVVDISKDDPEVQFSWFVDDVEVHTAQTQPREEQFNSTFRSVSELPIMHQDWLNGKEFKCRVNSAAFPAPIEKTISKTKGRPKAPQVYTIPPPKEQMAKDKVSLTCMITDFFPEDITVEWQWNGQPAENYKNTQPIMDTDGSYFVYSKLNVQKSNWEAGNTFTCSVLHEGLHNHHTEKSLSHSPGK light: QIVLTQSPALMSASPGEKVTMTCSASSSVSYMYWYQQKPRSSPKPWIYLTSYLASGVPARFSGSGSGTSYSLTISSMEAEDAATYYCQQWSSYPLTFGAGTKLELKRADAAPTVSIFPPSSEQLTSGGASVVCFLNNFYPKDINVKWKIDGSERQNGVLNSWTDQDSKDSTYSMSSTLTLTKDEYERHNSYTCEATHKTSTSPIVKSFNRNEC", "values": [
      {"measurement": "FDCP Proliferation IC50, FGFR3 IIIc G380R", "setting": "[1]", "result": 3.1, "unit": "nM"},
      {"measurement": "FDCP Proliferation IC50, FGFR3 IIIc", "setting": "[2]", "result": 0.28, "unit": "nM"},
      {"measurement": "FDCP Proliferation IC50, FGFR3 IIIb", "setting": "[3]", "result": 0.14, "unit": "nM"}
    ]},
    {"binder": "anti-FGFR3 monoclonal antibody 2G4 (antibody, mouse IgG1, kappa) heavy: EIQLQQSGPELVKPGASVKVSCKASGYAFTSYNMYWVKQSHGKSLEWIGYIDPYNGGTRDNQKFKGKATLTVDKSSSTAYMHLNSLTSEDSAVYYCAREGGNYEAWFAYWGQGTLVTVSAAKTTPPSVYPLAPGSAAQTNSMVTLGCLVKGYFPEPVTVTWNSGSLSSGVHTFPAVLQSDLYTLSSSVTVPSSTWPSETVTCNVAHPASSTKVDKKIVPRDCGCKPCICTVPEVSSVFIFPPKPKDVLTITLTPKVTCVVVDISKDDPEVQFSWFVDDVEVHTAQTQPREEQFNSTFRSVSELPIMHQDWLNGKEFKCRVNSAAFPAPIEKTISKTKGRPKAPQVYTIPPPKEQMAKDKVSLTCMITDFFPEDITVEWQWNGQPAENYKNTQPIMDTDGSYFVYSKLNVQKSNWEAGNTFTCSVLHEGLHNHHTEKSLSHSPGK light: QIVLTQSPALMSASPGEKVTMTCSASSSVSYMYWYQQKPRSSPKPWIYLTSNLASGVPARFSGSGSGTSYSLTISSMEAEDAATYYCQQWSSNPLTFGAGTKLELKRADAAPTVSIFPPSSEQLTSGGASVVCFLNNFYPKDINVKWKIDGSERQNGVLNSWTDQDSKDSTYSMSSTLTLTKDEYERHNSYTCEATHKTSTSPIVKSFNRNEC", "values": [
      {"measurement": "FDCP Proliferation IC50, FGFR3 IIIc G380R", "setting": "[1]", "result": 11.7, "unit": "nM"},
      {"measurement": "FDCP Proliferation IC50, FGFR3 IIIc", "setting": "[2]", "result": 0.5, "unit": "nM"},
      {"measurement": "FDCP Proliferation IC50, FGFR3 IIIb", "setting": "[3]", "result": 0.63, "unit": "nM"}
    ]},
    {"binder": "anti-FGFR3 monoclonal antibody 20B4 (antibody, mouse IgG1, kappa) heavy: EIQLQQSGPELVKPGASVKVSCKASGYSLTDYNMYWVKQSHGKSLEWIGYIDPYNGGTSYNQKFKGKATLTVDKSSSTAFMHLNSLTSEDSAVYYCARSLGPDFDYWGQGTTLTVSSAKTTPPSVYPLAPGSAAQTNSMVTLGCLVKGYFPEPVTVTWNSGSLSSGVHTFPAVLQSDLYTLSSSVTVPSSTWPSETVTCNVAHPASSTKVDKKIVPRDCGCKPCICTVPEVSSVFIFPPKPKDVLTITLTPKVTCVVVDISKDDPEVQFSWFVDDVEVHTAQTQPREEQFNSTFRSVSELPIMHQDWLNGKEFKCRVNSAAFPAPIEKTISKTKGRPKAPQVYTIPPPKEQMAKDKVSLTCMITDFFPEDITVEWQWNGQPAENYKNTQPIMDTDGSYFVYSKLNVQKSNWEAGNTFTCSVLHEGLHNHHTEKSLSHSPGK light: QIVLTQSPAIMSASPGEKVTMTCSASSSVNYMHWYQQKSGTSPKRWIYDTSKLASGVPARFSGSGSGTSYSLTISSMEAEDTATYYCQQWNSNPLTFGAGTKLELKRADAAPTVSIFPPSSEQLTSGGASVVCFLNNFYPKDINVKWKIDGSERQNGVLNSWTDQDSKDSTYSMSSTLTLTKDEYERHNSYTCEATHKTSTSPIVKSFNRNEC", "values": [
      {"measurement": "FDCP Proliferation IC50, FGFR3 IIIc", "setting": "[2]", "result": 102, "unit": "nM"},
      {"measurement": "maximal inhibition of FGF1 induced proliferation of FDCP-FGFR3 cell lines", "setting": "[4]", "result": 40, "unit": "%"},
      {"measurement": "FDCP Proliferation IC50, FGFR3 IIIb", "setting": "[3]", "result": 1.51, "unit": "nM"}
    ]},
    {"binder": "anti-FGFR3 monoclonal antibody 27H2 (antibody, mouse IgG1, kappa) heavy: EIQLQQSGPELVKPGASVKVSCKASGYAFTSYNMYWVKQSHGKSLEWIGYIDPYNGGTRYNQKFKGKATMTVDKSSSTAYMHLNSLTSEDSAVYYCAREGGNYEAWFAYWGQGTLVTVSAAKTTPPSVYPLAPGSAAQTNSMVTLGCLVKGYFPEPVTVTWNSGSLSSGVHTFPAVLQSDLYTLSSSVTVPSSTWPSETVTCNVAHPASSTKVDKKIVPRDCGCKPCICTVPEVSSVFIFPPKPKDVLTITLTPKVTCVVVDISKDDPEVQFSWFVDDVEVHTAQTQPREEQFNSTFRSVSELPIMHQDWLNGKEFKCRVNSAAFPAPIEKTISKTKGRPKAPQVYTIPPPKEQMAKDKVSLTCMITDFFPEDITVEWQWNGQPAENYKNTQPIMDTDGSYFVYSKLNVQKSNWEAGNTFTCSVLHEGLHNHHTEKSLSHSPGK light: QIVLTQSPALMSASPGEKVTMTCSASSSVSYMYWYQQKPRSSPKPWIYLTSNLASGVPARFSGSGSGTSYSLTISSMEAEDAATYYCQQWSSNPLTFGAGTKLELKRADAAPTVSIFPPSSEQLTSGGASVVCFLNNFYPKDINVKWKIDGSERQNGVLNSWTDQDSKDSTYSMSSTLTLTKDEYERHNSYTCEATHKTSTSPIVKSFNRNEC", "values": [
      {"measurement": "FDCP Proliferation IC50, FGFR3 IIIc G380R", "setting": "[1]", "result": 8.8, "unit": "nM"},
      {"measurement": "FDCP Proliferation IC50, FGFR3 IIIc", "setting": "[2]", "result": 0.59, "unit": "nM"},
      {"measurement": "FDCP Proliferation IC50, FGFR3 IIIb", "setting": "[3]", "result": 0.56, "unit": "nM"}
    ]},
    {"binder": "anti-FGFR3 monoclonal antibody 4E7 (antibody, mouse IgG1, kappa) heavy: EIQLQQSGPELVKPGASVKVSCKASGYAFTSYNMYWVKQSHGKSLEWIGYIDPYNGGTRYNQKFKGKATLTVDKSSSTAYMHLNSLTSEDSAVYYCAREGGNYEAWFAYWGQGTLVTVSAAKTTPPSVYPLAPGSAAQTNSMVTLGCLVKGYFPEPVTVTWNSGSLSSGVHTFPAVLQSDLYTLSSSVTVPSSTWPSETVTCNVAHPASSTKVDKKIVPRDCGCKPCICTVPEVSSVFIFPPKPKDVLTITLTPKVTCVVVDISKDDPEVQFSWFVDDVEVHTAQTQPREEQFNSTFRSVSELPIMHQDWLNGKEFKCRVNSAAFPAPIEKTISKTKGRPKAPQVYTIPPPKEQMAKDKVSLTCMITDFFPEDITVEWQWNGQPAENYKNTQPIMDTDGSYFVYSKLNVQKSNWEAGNTFTCSVLHEGLHNHHTEKSLSHSPGK light: QIVLTQSPALMSASPGEKVTMTCSASSSVSYMYWYQQKPRSSPKPWIYLTSNLASGVPARFSGSGSGTSYSLTISSMEAEDAATYYCQQWSSNPLTFGAGTKLELKRADAAPTVSIFPPSSEQLTSGGASVVCFLNNFYPKDINVKWKIDGSERQNGVLNSWTDQDSKDSTYSMSSTLTLTKDEYERHNSYTCEATHKTSTSPIVKSFNRNEC", "values": [
      {"measurement": "FDCP Proliferation IC50, FGFR3 IIIc G380R", "setting": "[1]", "result": 3.5, "unit": "nM"},
      {"measurement": "FDCP Proliferation IC50, FGFR3 IIIc", "setting": "[2]", "result": 0.62, "unit": "nM"},
      {"measurement": "FDCP Proliferation IC50, FGFR3 IIIb", "setting": "[3]", "result": 0.9, "unit": "nM"}
    ]}
  ]
}
